{"source": "patent US20220041686A1", "about": "(Stanford University, published 2022)", "test_in_all_cases": "quantification of the flow cytometry plots of panel A (B7H3 Fc staining, CAR MFI), with or without 3 µM grazoprevir [Cont.) B]", "key": {"065": {"biological_target": "T1, 065", "T1 construct": "Construct named only by number on the sheets; also called B7H3-cis SNIP scFv CAR with cleavage site 065"}, "066": {"biological_target": "T2, 066", "T2 construct": "Construct named only by number on the sheets; also called B7H3-cis SNIP scFv CAR with cleavage site 066"}, "[1]": {"biological_target": "T3, B7H3-SNIP-scFv CAR (extracellular; cis)", "T3 construct": "Only the full-length (uncleaved) CAR carries the scFv and is stained by B7H3 Fc; also called B7H3-cis SNIP scFv; B7H3-cis SNIP scFv CAR"}}, "data": [{"binder": "B7H3-Fc (Fc fusion, Staining reagent for flow cytometry; not shown: Fc part) LEVQVPEDPVVALVGTDATLCCSFSPEPGFSLAQLNLIWQLTDTKQLVHSFAEGQDQGSAYANRTALFPDLLAQGNASLRLQRVRVADEGSFTCFVSIRDFGSAAVSLQVAAPYSKPSMTLEPNKDLRPGDTVTITCSSYQGYPEAEVFWQDGQGVPLTGNVTTSQMANEQGLFDVHSILRVVLGANGTYSCLVRNPVLQQDAHSSVTITPQRSPTGAVEVQVPEDPVVALVGTDATLRCSFSPEPGFSLAQLNLIWQLTDTKQLVHSFTEGRDQGSAYANRTALFPDLLAQGNASLRLQRVRVADEGSFTCFVSIRDFGSAAVSLQVAAPYSKPSMTLEPNKDLRPGDTVTITCSSYRGYPEAEVFWQDGQGVPLTGNVTTSQMANEQGLFDVHSVLRVVLGANGTYSCLVRNPVLQQDAHGSVTITGQPMT", "values": [{"measurement": "fold CAR MFI, + Drug over - Drug", "setting": "065", "value": 157, "unit": "fold"}, {"measurement": "fold CAR MFI, + Drug over - Drug", "setting": "066", "value": 129, "unit": "fold"}, {"measurement": "fold CAR MFI, + Drug over - Drug", "setting": "[1]", "value": 70, "unit": "fold"}]}]}
